In publication PMC12846656:

Legend:
HIV-1 Gag WT (HIV-1) = experiment: fluorescence anisotropy salt titration
[1] = test system: WT Np (SARS-CoV-2 (ancestral, WA-1/2020 isolate)); experiment: fluorescence anisotropy salt titration

Substance	Kd (HIV-1 Gag WT (HIV-1)) [mM]	Kd [1] [µM]
SL5	0.14	500
SL1-5	21	36
SL1-4	120	260
HIV-1 WT Psi		38
HIV-1 TARpolyA		260
